The record followed here is paper PMC12170880.

Conditions in all cases: EMSA: 10 mM Tris-HCl pH 7.5, 50 mM NaCl, 1 mM EDTA, 5% glycerol, 1 mg/mL BSA, 1 mM DTT; 30 min, room temperature; 6% native PAGE, 0.5x TBE
Background: In EMSA bound probe runs differently from free probe, usually more slowly.

Data set [1] has as its target T1, HDIP1-c (Arabidopsis thaliana) (UniProt F4I0M4).
T1 sequence: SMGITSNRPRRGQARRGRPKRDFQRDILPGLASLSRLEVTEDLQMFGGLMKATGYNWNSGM
Put plainly: competition.

In data set [2] the target is T2, HDIP1-a (Arabidopsis thaliana) (UniProt F4I0M4).
T2 sequence: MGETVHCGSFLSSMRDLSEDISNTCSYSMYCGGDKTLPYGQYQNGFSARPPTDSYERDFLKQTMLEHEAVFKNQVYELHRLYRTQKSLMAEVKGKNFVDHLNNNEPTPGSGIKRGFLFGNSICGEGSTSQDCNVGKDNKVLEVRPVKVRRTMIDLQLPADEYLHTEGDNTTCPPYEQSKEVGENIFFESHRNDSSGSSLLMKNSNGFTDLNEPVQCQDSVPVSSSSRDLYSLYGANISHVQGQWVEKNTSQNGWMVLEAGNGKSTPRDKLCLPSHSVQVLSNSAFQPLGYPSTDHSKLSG
Put plainly: EMSA.

Data set [3] addresses T1, HDIP1-c (Arabidopsis thaliana). Put plainly: EMSA.
The target in data set [4] is T3, HDIP3-DBD (Arabidopsis thaliana) (UniProt Q9LMG4).
T3 sequence: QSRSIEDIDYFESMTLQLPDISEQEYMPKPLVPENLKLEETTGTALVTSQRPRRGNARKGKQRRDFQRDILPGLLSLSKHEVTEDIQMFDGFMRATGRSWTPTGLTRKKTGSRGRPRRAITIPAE
The data set is described as follows: EMSA.

Data set [5] has as its target T4, HDIP1-d (Arabidopsis thaliana) (UniProt F4I0M4).
T4 sequence: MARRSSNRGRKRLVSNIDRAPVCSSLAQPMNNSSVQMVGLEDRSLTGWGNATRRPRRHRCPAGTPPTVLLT
The data set is described as follows: EMSA.

Data set [6] has as its target T5, HDIP1-b (Arabidopsis thaliana) (UniProt F4I0M4).
T5 sequence: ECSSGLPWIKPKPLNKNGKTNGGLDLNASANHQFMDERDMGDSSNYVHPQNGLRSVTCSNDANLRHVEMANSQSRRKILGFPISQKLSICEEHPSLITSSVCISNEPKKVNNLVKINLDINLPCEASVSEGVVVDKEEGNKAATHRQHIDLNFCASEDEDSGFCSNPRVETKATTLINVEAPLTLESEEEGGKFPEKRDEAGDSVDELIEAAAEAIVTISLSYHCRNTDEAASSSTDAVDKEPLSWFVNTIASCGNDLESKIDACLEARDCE
Put plainly: EMSA.

On to “TGTGAAGAATGCAGTAAGAGGCAGTCAAAGATTCAAAGGGAAAAAAGTTTACGAAAACAAAAGATTATATTTTGGGAGTATTAGGCTGCCACGTGGAAACACTTGCACCGGCATTTGACCGTCGCCGACACATGACCTGGCACGTGCTAGAGACTGTCTTCTCTTCTTCTTCTTCTTTTTCCCTCACTGTTTCACGAACC (double strand) [P1 (200 bp)]”, for which the binding entry in data set [1] is “binds”; in data set [2], “no binding”; in data set [3], “binds”; in data set [4] it was “binds”; in data set [5], “no binding”; in data set [6], “no binding”.
In the case of “TTCCTAAGAGGTCTAGATTGGTGCTTGGACTTTAATTTGGTCTTCGTCTCTCGTTCTCGTATTTATGCATTTTGAAACTCAAAAAAGGAAGAGAGAGAAGAATAATATGATTTTGGCTACTTGGTTTGGAAATAAGTTAATTAAGTAAAAGTGTATTGAGATATAATTCAATGGTACGTGTGTGAATCCAAAGTCGTGTT (double strand) [P3 (200 bp)]”, in data set [3], the binding entry is listed as “binds”.
On the same count and under the same terms, in the case of “CCACTCCACATAGCTACGTCACTTAAAGTCCCATAGTAACTAATTTTCTTTGAATGTTATAGCAAATTATTAGCAATGTATGATTCTTTGGGTCAAATCTTACACTAAAAACATGAAAATAATTTGAATATCAAGAGATTCATATATTCATATTTTATAACCAAAATATGTAGGGTCTAAATTATTGCTTCTTGACTAGG (double strand) [P2 (200 bp)]” it was “binds”.
